Assay results reported in the DeepSol protein solubility set.

experiment: soluble on expression in E. coli; label from the status in PepcDB or PDB records

Sequence	soluble on expression in E. coli
MFQLSVQDIHPGEKAGDKEEAIRQVAAALVQAGNVAEGYVNGMLAREQQTSTFLGNGIAIPHGTTDTRDQVLKTGVQVFQFPEGVTWGDGQVAYVAIGIAASSDEHLGLLRQLTHVLSDDSVAEQLKSATTAEELRALLMGEKQSEQLKLDNEMLTLDIVASDLLTLQALNAARLKEAGAVDATFVTKAINEQPLNLGQGIWLSDSAEGNLRSAIAVSRAANAFDVDGETAAMLVSVAMNDDQPIAVLKRLADLLLDNKADRLLKADAATLLALLTSDDAPTDDVLSAEFVVRNEHGLHARPGTMLVNTIKQFNSDITVTNLDGTGKPANGRSLMKVVALGVKKGHRLRFTAQGADAEQALKAIGDAIAAGLGEGA	soluble
MFQQQNDWETRENAFAAFAMGPLTDFWRQREEAEFIGVGNIPVRFVRFRNDSNDRTIVICPGRIESYVKYAELAYDLFHLGFDIFIIDHRGQGRSGRMLSDPHRGHVDHFNDYVEDLAAFWQQEIEPGPWRKRYILAHSMGGAIATLFLQRHRVRCDAIALTAPMFGIVIRLPSFMVRHILDWAEGHQRIREDYAIGTGQWRALPFGMNALTHSRQRYQRNLRFYADEPQLRVGGPTWHWVREGILAGEQVLAGASDDTTPTLLIQAEEERVVDNRTHDRFCEIRAAAGYPCEGGKPLVIKGAYHEILFEKDAMRSVALNAIVEFFNKPNLSSGNRFA	not soluble
MFSILLPTWNNLALLKLCVQSIRAHSAHDHQIIVHVNDGSDGTLAWVREQGLDHTHSPGNVGICLAVNESAMLARHDYIVYLNDDMVCCPGWDTALLRRLDTLDTDLFMLSGTMIEPVDTGNPCVVVGNYGRDADTFDAARLLADVPRLARGDWLGATWPPTLVHRRWWFKLGGYSSELTPGMSSDNDFSMKLWHAGCRIFLGAGDSLVYHFQCKSTGKVKKNDGRRQFLNKWGLSQSTFDKYFLRRGTPAGADWRLPEPELTSALRWDLRRNDLTRRLRPGVPVLLEHHHHHH	soluble
MFSIPPLPWGYDGLAAKGLSKQQVTLHYDKHHQGYVTKLNAAAQTNSALATKSIEEIIRTEKGPIFNLAAQIFNHTFYWESMCPNGGGEPTGKVADEINASFGSFAKFKEEFTNVAVGHFGSGWAWLVKDTNSGKLKVYQTHDAGCPLTEPNLKPLLTCDVWEHAYYVDYKNDRAAYVQTFWNVVNWKNVERQL	soluble
MFSKSSNRFGTTSIFGDQSIKDEYRNRQRRLSLIGGPISGTSPNRRESLVRELRTVSLHQYTEDPTLAWEMLKEKRPVKPVRQMRLDTPVKPDHVRFVCIGCTHGEQFDISKLPPGDVLLVAGDFTSCGLPNEVHNFNKLLGKLKYSYKVVIGGNHECTFDDTFLKLKQESEPKEMALKQALLSAIHSDSKGGISAKDLLSNAIYLEDNVIELFGITIYGTPWQPKVDNWAFNLSRGQQLLDKWNLIPAALTCF	not soluble
MFSPVKSTKVYEQIIEQFKIMIANGTLKKGDKLPSERELVSQLGVSRASIREALSALQMIGFVEARHGEGNFIRENFEESLIDPFLLIFMLNGSNKEQILELRRIIEVETAALAAKKITDEEVKELEVCLENLTEAENETLKGKYDKKFHYNIAKASKNILIVNMLNAVSSLMDSFISEARGRILMVEDNKNVLMKQHRSMLEALKNHDSKAASNAMSEHLDLIYEYIIKK	not soluble
MFSQWVFLSVLALAVPSFAWAEDAVSDLAREQSKAEQGDKRGDELFAEFTRLRQAAETGEPQALFDFGAYFYQQQNYASAREWWGKAAAAGMVRAQIQLAMLYRDGDGGPQDKTEAARWFRKAAEQGDAAAQNEMGVLYWRGEGVDQDRVKAGTWFERAAASGSEDAETNLGWFYLDDSQGVYSATSDEEAALLDRYAGSREKAFQWFCKAATQGDARAQFKVGEAYWNGSGAGMNKLQARLWLEKAAQQQDADAIAWLESAANAAWYTRLENWIHAALDGELSGVADCSGAADRRHSGRGMEGAPSDPEAVEASAEDAQQAVEAASQ	not soluble
MFSRDRVAYTDLTVNSACDDLFPGVEDVDAQATLQLRAALDAFEEGVFEYHNRASQAGEADAGKHSARGGGQRRTRREKIYASRIPEDRQFFRPVDQQSAEWAAFKPHLWLRGRRIHSADAAAHAGQHHHLHHHTPAGAPQAQQPALAASPVHAGAGLPAGTAGAGADAGAGAGTGAGLELRGTRAVLAPPPPEAEDAADPDRECVLVDHGDFAESLAVQWDAWEAAATRGGPQALRRRRGRPRDEKAVAVGLPPVEPRSAILYDVAEELLPDVWQRLAPLLAPLLARVAEERKKRPASSAAAAFRGAGAGGGGGGGLGGGSFGGGDFEILTFS	not soluble
MFSSSALSYINGFCFSTAGYSPEFCHAVRFVLIEEGALNQDGTPKPNLGYVNDPKDKGGETKGGISKRAFPNIDIAALTLDGIVALYHRYFWKPAYCQDWPASVALYTFDAAVQHGVTNALLMLQEIAGTKADGKVGPATRNAVNSADKEYLCARYGLRRARFYARIIKKDTSQTRFIEGWHNRLVNLTNAAWELQ	soluble
MFSVLLSVYYNESPYYFRQSIDSLFNQSLQLAEVVLVKDGELTPELENVITEYTAKYLQIRVVPLKQNQGLGKALNEGLKHCSYDLVARMDTDDIAKPNRFEKQIRVFQEHPELDVVGAWIDEFEETTSNIISTRKLPEVHDDICQFAKKRNPENHPVIMFRKQAVLAAGGYQHFPLFEDYYLWIRMLQNGAKFYNIQESLLYFRFSSAMFKRRGGLKYVTTELRFQNLLRNLEFITFSEYLYNVFIRVITRMMPNSLRAILYKKALRK	not soluble
MFTAKLIKGKTYNVMGITFRAGVSQTVPKKLYEYLNENPYFILTQELNNQKDDPINYTESELKGMNKAEHESIISNLGRNPSDFKNADERIAYILKQIDNKGELEHHHHHH	soluble
MFVAREHELQVLEKLFTSDSFEMVVLYGRRRVGKTALIDEFVKDKRVLYFTAIQQSAKMNLEDFSRAALSFFGMPDSTPSFGGWSDALSFVAERAAQTDERMVFVFDEFPYAAAAEPALPSMLQIAIDHGFLATKVTMILSGSNEGFMENDVLGRKSPLYGRRTAQIRLLPFDYADAAKFLTNTSPQELVQYYATFGGTPYYLARIQEADGFESNVLRLMFDNLGVLREEPMMLLRQELREPASYYSILQSIAGGNSSPKLIAEHAGVGSDSIGAYLKTLVDLRLIERKVPFGEDPSKSRKGMYVVSDPFFAYWFRFVGRNMSILDGNISEEVTSRLAFGPAFDTYVGQQFETICLQWLIRNNAMGNLPFVATQFGKWWGNDPIAHEQTDIDVIAADSLDKTILFGECKWRNSFNETEAIEKLHQRAGLVRGYQAGNAWLMLFTKNPVSESTRTRYMDDERMVFVSAEELYTALEHHHHHH	not soluble
MFVDQVKISLKAGDGGNGITAYRREKYVPFGGPAGGDGGKGASVVFEVDEGLRTLLDFRYQRHFKASKGENGQSSNMHGKNAEDLVLKVPPGTIIKNVETDEVLADLVEDGQRAVVAKGGRGGRGNSRFATPRNPAPDFSEKGEPGEELDVSLELKLLADVGLVGFPSVGKSTLLSIVSKAKPKIGAYHFTTIKPNLGVVSTPDQRSFVMADLPGLIEGASDGVGLGHQFLRHVERTKVIVHMIDMSGSEGREPIEDYKVINQELAAYEQRLEDRPQIVVANKMDLPESQDNLNLFKEEIGEDVPVIPVSTITRDNIDQLLYAIADKLEEYKDVDITVEEEESVGINRVLYKHTPSQDKFTISRDDDGAYVVSGNAIERMFKMTDFNSDPAVRRFARQMRSMGIDDALRERGCKNGDIVRILGGEFEFVE	not soluble
MFVDREEELKALNEKLDSNNFEFIVIYGRRRIGKTKLALKSVENREHIYYLAVEGDNLKHFKRYASKVEPTIEYAKEDWEAYFNFLKDKIIIIDEFPNLIKENPNVLSLFQRIVDIHLKNTKTKLIILGSSISMMGEKVLSYKSPLYGRKTGVLKIKPLKFKHLKEFFPKAIWEELVEIYGFADGIPYYLEKVKLPFWDYLDKEIKRVDSFLRYEVDFLMKYEFEEPTTYKKILEAIAFGNHTLGEIKNYLGFKHSDLTPYLKNLIEVEFIERQTPITESVKSKKGRYYIKDNFIAFYFRYIFPNLSAIEEGIFDIEEIKADYNQYLGFVFEKVAKEFLIELNKMNKLPFKFLKIGRWWHRGEEIDLIALNDNDKKALFVEVKWKDLKDRDVKKIYRDLYRKSKLVGLDDYEKYYAIVGKKIESKENGDCLLFDLEDFSLEHHHHHH	soluble
MFVRVMKIAQNKKIVTVYPTTTIRKALMTMNENKYRRLPVVNAGNNKVVGIITSMDIVDFMGGGSKYNLIREKHERNFLAAINEPVREIMEENVITLKENADIDEAIETFLTKNVGGAPIVNDENQLISLITERDVIRALLDKIDENEVIDDYITRDVIVATPGERLKDVARTMVRNGFRRLPVVSEGRLVGIITSTDFIKLLGSDWAFNHMQTGNVREITNVRMEEIMKRDVITAKEGDKLKKIAEIMVTNDIGALPVVDENLRIKGIITEKDVLKYFA	soluble
MFYAQFVLAKKGPLAKVWLAAHWEKKLTKAQIFETDVPQAIEEVIRPKVKMALRTVGHLLLGIVRIYSKKTRYLLADTNEAYQKMKINFRNGFSFEVDIPENAEIEEDFSNFIDKYNITVPEFHDADYNEQLIMANVSRREDITMKETVNFNVEFNIDADFDGFGDEGESWQLDHLYGSVEPLSLRPTPQPESLMEVERDRDVAANGTEISRIDADSVIFSEGPTRPNLIFDNQEGGNFMPEMNLKVENQTLENDGGVGPADMFSSMIHPVREHAVADVQNDDGMDFDYQPFEPENVEPSRPQSPESFALEPLDVEHMEGRKKRQRKARKLIVDAETMISNDAFREQQEDFSDTMRVVEMAPPTRKMFNLCVSGDLQHLSREPGCKMFNRELLQRYRRCLVTREFDLNYTMQELSDSSSFTPSMEAQAEPWEDLNLNEDIQEDIQAQGPAVDEFFNDVRMDDDDDRQPAQEMDFGDNFDFPQEVEHQECAPIPIQSGFAGENKENEDAEDWSDPFGSSNSSRRGQLEAYGFGNTSTYKEDDGKWAKRAKHILKKVSADIETSGQADFSSVTATAKNRKQAAEQFYSLLTLAKSQAISVDQSEPYGEIVIRPGANFKEACPLSSPKPMGLGNTMENSTMRTPMRPV	not soluble
MGAASCEDEELEFKLVFGEEKEAPPLGAGGLGEELDSEDAPPCCRLALGEPPPYGAAPIGIPRPPPPRPGMHSPPPRPAPSPGTWESQPARSVRLGGPGGGAGGAGGGRVLECPSIRITSISPTPEPPAALEDNPDAWGDGSPRDYPPPEGFGGYREAGAQGGGAFFSPSPGSSSLSSWSFFSDASDEAALYAACDEVESELNEAASRFGLGSPLPSPRASPRPWTPEDPWSLYGPSPGGRGPEDSWLLLSAPGPTPASPRPASPCGKRRYSSSGTPSSASPALSRRGSLGEEGSEPPPPPPLPLARDPGSPGPFDYVGAPPAESIPQKTRRTSSEQAVALPRSEEPASCNGKLPLGAEESVAPPGGSRKEVAGMDYLAVPSPLAWSKARIGGHSPIFRTSALPPLDWPLPSQYEQLELRIEVQPRAHHRAHYETEGSRGAVKAAPGGHPVVKLLGYSEKPLTLQMFIGTADERNLRPHAFYQVHRITGKMVATASYEAVVSGTKVLEMTLLPENNMAANIDCAGILKLRNSDIELRKGETDIGRKNTRVRLVFRVHVPQGGGKVVSVQAASVPIECSQRSAQELPQVEAYSPSACSVRGGEELVLTGSNFLPDSKVVFIERGPDGKLQWEEEATVNRLQSNEVTLTLTVPEYSNKRVSRPVQVYFYVSNGRRKRSPTQSFRFLPVICKEEPLPDSSLRGFPSASATPFGTDMDFSPPRPPYPSYPHEDPACETPYLSEGFGYGMPPLYPQTGPPPSYRPGLRMFPETRGTT	soluble
MGAGMLGNINDIDLRMLRTFCAIVEAGGFTAAQARLNTSLSRLSVLVRDLEVRLGYSLCRRGNGGFQLTEEGQELYDAALGLFSDIARFREQVRGLGGRDREALHLGCVDGVIGQHCLPLPLAIRLFRQRAPEVLLKLHTRRPDELEHAVLEERLQLAVGAFHHRLSGLYYQPLFREEQNLYCGSAHPFFARADDEPTLGEICAADYVGRGYMAENHRPHDLRFNQGTDAYTMEAIATLVFSGTYIGYLPTHYAATWVAEGRMRAIRPRQLAYDSEFHCITRQGHEERPTLTLFLRSLFEAQKQLGVQVPANTNGIARQL	not soluble
